Assay results from patent publication CN117677637A (PETEMEDI LTD, dated 2024).

T1: 犬CD20 (canine CD20, B淋巴细胞抗原CD20, full length, wild type) (canine (dog), UniProt Q3C2E2 1-297)
T1 construct: Stably expressed from full-length cDNA on MDCK II (or HEK293) cells for flow cytometry and ADCC; naturally expressed on CLBL-1 canine lymphoma cells in the CDC assay; also called cCD20; MS4A1
T1 chain: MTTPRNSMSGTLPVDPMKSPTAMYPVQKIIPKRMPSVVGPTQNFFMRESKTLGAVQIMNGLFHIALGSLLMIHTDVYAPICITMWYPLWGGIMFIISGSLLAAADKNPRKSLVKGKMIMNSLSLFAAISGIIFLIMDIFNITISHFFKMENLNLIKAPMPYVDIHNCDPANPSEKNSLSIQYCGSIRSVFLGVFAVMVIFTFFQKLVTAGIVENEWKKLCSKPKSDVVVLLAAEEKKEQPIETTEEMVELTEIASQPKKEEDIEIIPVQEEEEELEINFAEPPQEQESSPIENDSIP


Target: T1, 犬CD20 (canine CD20, B淋巴细胞抗原CD20, full …)
Test: flow cytometry, 10 ug/ml antibody on MDCK II cells expressing canine CD20 (Fig 3A)

| binding result | Binder |
| --- | --- |
| binds | PMX001 (antibody, V domains shown, Fully canine mAb; also called PMX001 mAb) VH: EVQLVESGGDLVKPGGSLRLSCVASGFTFSSYHMSWVRQAPGKGLQWVAYINSGGSSTTYADAVKGRFTISRDNAKKTLYLQMNSLRAEDTAVYYCSTFDYWGQGTLVTVSS VL: SYVLTQLPSRNVTLKQPAHITCGGDNIGSKSVHWYQQKLGQAPVLIIYYDTRRPTGIPERFSGANSGNTATLTISGALAEDEADYYCQVWDSSGNVFGGGTHLTVL |
| binds | PMX004 (antibody, V domains shown, Fully canine mAb; also called PMX004 mAb) VH: EVQLVESGGELVKPGGSLRVSCVASGITFSRYHMSWVRQAPGKGLQWVAFINTDRSSPKYADSVKGRFTISRDNAKNTLYLQMNSLRAEDTAIYYCTSFDYWGQGTLVTVSS VL: SYVLTQLPSKNVTLKQPAHITCGGDNIGSKSVHWYQQKLGQAPVLIIYYDSSRPTGIPERFSGANSGNTATLTISGALAEDEADYYCQVWDSSANVFGGGTHLTVL |
| binds | PMX005 (antibody, V domains shown, Fully canine mAb; also called PMX005 mAb) VH: EVQLVESGGDLVKPGGSLRLSCVASGFTFSRYHMSWVRQAPGKGLQWVAYINSGGSDSDYADAVKGRFTISRDNAKNTLYLQMNSLRAEDTAVYYCTSLDYWGQGTLVTVSS VL: SYVLTQLPSKNVTLKQPAHITCGGDNIGSKSVHWYQQKLGQAPVLIIYYDSSRPTGIPERFSGANSGNTATLTISGALAEDEADYYCQVWDRSGNVFGGGTHLTVL |

Target: T1, 犬CD20 (canine CD20, B淋巴细胞抗原CD20, full …)
Test: flow cytometry, 10 ug/ml antibody on MDCK II cells expressing canine CD20 (Fig 3B)

| binding result | Binder |
| --- | --- |
| binds | PMX010 (antibody, V domains shown, PMX003 heavy chain; Constant regions not restated (PMX003: dog IGGB / dog IGLC5); also called PMX010 mAb; SVT) VH: EVQLVESGGDLVKPGGSLRLSCVASGITFSRYHMSWVRQAPGKGLQWVAYINSGGSSTSYPDAVKGRFTISRDNAKNTLYLQMDSLRAEDTALYYCTTFDYWGQGTLVTVSS VL: SYVLTQLPSKSVTLKQPAHITCGGDNIGSKSVHWYQQKLGQAPVLIIYYDSRRPTGIPERFSGANSGNTATLTISGALAEDEADYYCQVWDSSANVFGGGTHLTVL |
| binds | PMX011 (antibody, V domains shown, PMX003 heavy chain; Constant regions not restated (PMX003: dog IGGB / dog IGLC5); also called PMX011 mAb; TVT) VH: EVQLVESGGDLVKPGGSLRLSCVASGITFSRYHMSWVRQAPGKGLQWVAYINSGGSSTSYPDAVKGRFTISRDNAKNTLYLQMDSLRAEDTALYYCTTFDYWGQGTLVTVSS VL: SYVLTQLPSKTVTLKQPAHITCGGDNIGSKSVHWYQQKLGQAPVLIIYYDSRRPTGIPERFSGANSGNTATLTISGALAEDEADYYCQVWDSSANVFGGGTHLTVL |

Target: T1, 犬CD20 (canine CD20, B淋巴细胞抗原CD20, full …)
Test: flow cytometry, 10 ug/ml antibody on MDCK II cells expressing canine CD20 (Fig 3C)

| Binder | binding result |
| --- | --- |
| PMX080 (antibody, V domains shown) VH: EVQLVESGGDLVKPGGSLRLSCVASGLTFSRYYMNWVRQAPGKGLQWVAYIDSGGSPTNYADAVKGRFTISRDNAKNTLYLQMNSLRAEDTAVYYCSSFDYWGQGTLVTVSS VL: SYVVTQLPSNTVTLKQPAHITCGGDNIGSKSVHWYQQKLGQAPVLIIYYDSRRPTGIPERFSGANSGNTATLTISGALAEDEADYYCQVWDSSANVFGGGTHLTVL | binds |
| PMX078 (antibody, V domains shown) VH: EVQLVESGGDLVKPGGSLRLSCVASGLTFSRYHMSWIRQAPGKGLQWVAYISSGGSSTNYAGSVKGRFTVSRDNAKNTLYLQMNSLRAEDTAVYYCTSLDYWGQGTLVTVSS VL: SYVLTQLPSKNVTLKQPAHITCGGDNIGSKSVHWYQQKLGQAPVLIIYYDSRRPTGIPERFSGANSGNTATLTISGALAEDEADYYCQVWDSSDNVFGGGTHLTVL | binds |
| PMX066 (antibody, V domains shown, Canine mAb) VH: AVQLVESGGDLVKPGGSLRLSCVASGITFSRYHMSWVRQAPGKGLQWVAYINSGGSATSYTDAVKGRFSISRDNGKNTLYLQMNSLRVEDSAVYYCTTLDLWGQGTLVTVSS VL: SYVLTQLPSKNVTLKQPAHITCGGDNIGSKSVHWYQQKLGQAPVLIIYYDSRRPTGIPERFSGANSGNTATLTINGALAEDEADYYCQMWDSSANVFGGGTHLTVL | binds |
| PMX081 (antibody, V domains shown) VH: EVQLVQSGGDLVKPGGSLRLSCVASGYTFTRYHMSWVRQAPGKGLQWVAFINSDGTGITYGDAVKGRFTISRDNAKNTLYLQMNSLRAEDTAIYYCTTFDSWGQGTLVTVSS VL: SYVLTQLPSKNVTLKQPAHITCGGDNIGSKSVHWYQQKLGQAPILIIYYDSRRPTGIPERFSGANSGNTATLTISGALAEDEADYYCQVWDSSGNVFGGGTHLTVL | binds |
| PMX070 (antibody, V domains shown) VH: EMQLVESGGDLVKPGGSLRLSCVASGFTFSRYHMSWVRQAPGKGLQWVAYINSGGSPTNYADAVKGRFTISRDNAKNTLYLQMNSLRAEDTAVYYCTTYDQWGQGTLVTVSS VL: SYVLTQLPSKSVTLKQPAHITCGGDNIGSKSVHWYQQKLGQAPVLIIYYDSSRPTGIPERFSGANSGNTATLTISGALAEDEADYYCQVWDTSANVFGGGTHLTVL | binds |
| PMX067 (antibody, V domains shown, also called PMX0067) VH: EIQLVESGGDLVKPGGSLRLSCVASGFTFSRYHMSWVRQAPGKGLQWVAYINTGGSNTNYADAVKGRFTISRDNAKNTLYLQMNSLRAEDTAVYYCTTLDSWGQGTLVTVSS VL: SYVLTQLPFKNVTLKQPAHITCGGDNIGSKSVHWYQQKLGQAPVLIIYYDSRRPTGIPERFSGANSGNTATLTISGALAEDEADYYCQVWDSSVNVFGGGTHLTVL | binds |
| PMX072 (antibody, V domains shown) VH: EVQLVESGGDLVKPGGSLRLSCVASGFTFSRYHMSWVRQAPGKGLQWVAFINTGRSSTNYADAVAGRFTISRDNAKNTLYLQMNSLRAEDTAVYYCSTLDYWGQGTLVTVSS VL: SYVLTQLPSKNVTLKQPAHITCGGDNIGSKSVHWYQQKLGQAPVLIIYYDSSRPTGIPERFSGANSGNTATLTISGALAEDEADYYCQVWDSSANVFGGGTHLTVL | binds |

The remaining lines, values ahead:

| binding result | Binder |
| --- | --- |
| binds | PMX071 (antibody, V domains shown) VH: EVHLVESGGDLVKPGGSLRLSCVASGITFNRYYMNWVRQTPGKGLQWVAYIDSGGSPTTYADAVKGRFTISRDNAKNTLYLQMNSLRAEDTAVYYCTSFDYWGQGTLVTVSS VL: SYVLTQLPSKNVTLKQPAHITCGGDNIGSKSVHWYQQKLGQAPILIIYYDTSRPTGIPERFSGANSGNTATLTISGALAEDEADYYCQVWDSSANVFGGGTHLTVL |
| binds | PMX074 (antibody, V domains shown) VH: EVQLVESGGDLVKPGGSLRLSCVASGFTFSRYYMTWVRQAPGKGLQWVAYINSDRRSTTYADAVKGRFTISRDNAKNTLYLQMNSLRAEDTAVYYCTTLEYWGQGTLVTVSS VL: SYVLTQLPSKNVTLKQPAHITCGGDNIGSKSVHWYQQKLGQAPVLIIYYDSRRPTGIPERFSGANSGNTATLTINGALAEDEADYYCQVWDSSANVFGGGTHLTVL |
| binds | PMX075 (antibody, V domains shown) VH: EVQLVESGGDLVKPGGSLRLSCVASGITFSRYHMSWVRQAPGKGLQWVAFINTGRSSTNYADAVAGRFTISRDNAKNTLYLQMNGLTVEDTAVYYCSTLDYWGQGTLVTVSS VL: SYVLTQLPSKSVTLKQPAHITCGGDNIGSKSVHWYQQKLGQAPILIIYYDNNRPTGIPERFSGANSGNTATLTISGALAEDEADYYCHVWDSSVNVFGGGTHLTVL |
| binds | PMX069 (antibody, V domains shown, also called PMX0069) VH: EMQLVESGGALVKPGGSLRLSCVASGFTFRRYHMSWVRQAPGQGLQWVAYIDSDGSPTSYGDSVKGRFTISRDNAKNTLFLQMNSLRVDDTAVYYCTTLDYWGRGTLVTVSS VL: SYVLTQVPSKNVTLKQPAHITCGGDNIGGKSVHWYQQKLGQAPLLIIYYDTRRPTGIPERFSGANSGNTATLTISRALAEDEADYYCQVWDSSGNVFGGGTHLTVI |
| binds | PMX076 (antibody, V domains shown) VH: EVQLVESGGDLVKPGGSLRLSCVASGITFSRYYMNWVRQAPGKGLQWVAYIDSGGSPTTYADAVKGRFTISRDNAKKALYLQMNSLRAEDTAVYYCTSFDYWGQGTLVTVSS VL: SYVLTQLPSKNVTLKQPAHITCGGDNIGSKSVHWYQQKLGQAPVLIIYYDSSRPTGIPERFSGANSGNTATLTISGALAEDEADYFCQVWDSSANVFGGGTHLTVL |
| binds | PMX073 (antibody, V domains shown) VH: EVQLVESGGDLVKPGGSLRLSCVASGFTFSRYYMNWVRQAPGKGLQWVAFITSGGSSTSYGDAVKGRFTISRDNAKNTLYLQMNSLRAEDTAVYYCTSFDYWGQGTLVTVSS VL: SYVLTQLPSKNVTLKQPAHITCGGDNIGSKSVHWYQQKLGQAPVLIIYYASSRPTGIPERFSGANSGNTATLTISGALAEDEADYYCQVWDSSANVFGGGTHLTVL |
| binds | PMX079 (antibody, V domains shown) VH: EVQLVESGGDLVKPGGSLRLSCVASGLTFSRYHMSWVRQAPGKGLQWVAFINSGRSDTTYADAVKGRFTISRDNAKNTLYLQMNSLRAEDTAVYYCTTFDYWGQGTLVTVSS VL: SYVLTQLPSKNVTLKQPAHITCGGDNIGSKSVHWYQQKLGQAPALIIYYDSSRPTGIPERFSGANSGNTATLTISGALAEDEADYYCQVWDSSANVFGGGTHLTVL |
| binds | PMX077 (antibody, V domains shown) VH: EVQLVESGGDLVKPGGSLRLSCVASGITFSRYYMNWVRQAPGKGLQWVAYINSGGSPTTYADAVKGRFTISRDNAKNTLYLQMNSLRAEDTAVYYCTSFDYWGQGTLVTVSS VL: SYVLTQLPSKNVTLKQPAHITCGGDNIGSKSVHWYQQKLGQAPILIIYYDTSRPTGIPERFSGANSGNTATLTISGALAEDEADYYCQVWDSSANVFGGGTHLTVL |
